The values below come from publication PMC3406077 (2012).

B1: wild-type full-length (C24-P237) pallilysin [Treponema pallidum subsp. pallidum (Nichols strain)] / plasminogen-depleted human fibrinogen [human] (parent complex)
chain 1: CFQHGHVPPRRIPPHDTFGALPTAALPSNARDTAAHPSDTADNTSGSSTTTDPRSHGNAPPAPVGGAAQTHTQPPVQTAMRIALWNRATHGEQGALQHLLAGLWIQTEISPNSGDIHPLLFFDREHAEITFSRASVQEIFLVDSAHTHRKTVSFLTRNTAISSIRRRLEVTFESHEVIHVRAVEDVARLKIGSTSMWDGQYTRYHAGPASAPSP
chain 2: ADSGEGDFLAEGGGVRGPRVVERHQSACKDSDWPFCSDEDWNYKCPSGCRMKGLIDEVNQDFTNRINKLKNSLFEYQKNNKDSHSLTTNIMEILRGDFSSANNRDNTYNRVSEDLRSRIEVLKRKVIEKVQHIQLLQKNVRAQLVDMKRLEVDIDIKIRSCRGSCSRALAREVDLKDYEDQQKQLEQVIAKDLLPSRDRQHLPLIKMKPVPDLVPGNFKSQLQKVPPEWKALTDMPQMRMELERPGGNEITRGGSTSYGTGSETESPRNPSSAGSWNSGSSGPGSTGNRNPGSSGTGGTATWKPGSSGPGSTGSWNSGSSGTGSTGNQNPGSPRPGSTGTWNPGSSERGSAGHWTSESSVSGSTGQWHSESGSFRPDSPGSGNARPNNPDWGTFEEVSGNVSPGTRREYHTEKLVTSKGDKELRTGKEKVTSGSTTTTRRSCSKTVTKTVIGPDGHKEVTKEVVTSEDGSDCPEAMDLGTLSGIGTLDGFRHRHPDEAAFFDTASTGKTFPGFFSPMLGEFVSETESRGSESGIFTNTKESSSHHPGIAEFPSRGKSSSYSKQFTSSTSYNRGDSTFESKSYKMADEAGSEADHEGTHSTKRGHAKSRPVRGIHTSPLGKPSLSP
chain 3: QGVNDNEEGFFSARGHRPLDKKREEAPSLRPAPPPISGGGYRARPAKAAATQKKVERKAPDAGGCLHADPDLGVLCPTGCQLQEALLQQERPIRNSVDELNNNVEAVSQTSSSSFQYMYLLKDLWQKRQKQVKDNENVVNEYSSELEKHQLYIDETVNSNIPTNLRVLRSILENLRSKIQKLESDVSAQMEYCRTPCTVSCNIPVVSGKECEEIIRKGGETSEMYLIQPDSSVKPYRVYCDMNTENGGWTVIQNRQDGSVDFGRKWDPYKQGFGNVATNTDGKNYCGLPGEYWLGNDKISQLTRMGPTELLIEMEDWKGDKVKAHYGGFTVQNEANKYQISVNKYRGTAGNALMDGASQLMGENRTMTIHNGMFFSTYDRDNDGWLTSDPRKQCSKEDGGGWWYNRCHAANPNGRYYWGGQYTWDMAKHGTDDGVVWMNWKGSWYSMRKMSMKIRPFFPQQ
chain 4: YVATRDNCCILDERFGSYCPTTCGIADFLSTYQTKVDKDLQSLEDILHQVENKTSEVKQLIKAIQLTYNPDESSKPNMIDAATLKSRKMLEEIMKYEASILTHDSSIRYLQEIYNSNNQKIVNLKEKVAQLEAQCQEPCKDTVQIHDITGKDCQDIANKGAKQSGLYFIKPLKANQQFLVYCEIDGSGNGWTVFQKRLDGSVDFKKNWIQYKEGFGHLSPTGTTEFWLGNEKIHLISTQSAIPYALRVELEDWNGRTSTADYAMFKVGPEADKYRLTYAYFAGGDAGDAFDGFDFGDDPSDKFFTSHNGMQFSTWDNDNDKFEGNCAEQDGSGWWMNKCHAGHLNGVYYQGGTYSKASTPNGYDNGIIWATWKTRWYSMKKTTMKIIPFNRLTIGEGQQHHLGGAKQAGDV

In this assay the parent is B1. Kind of assay: ELISA; 20 µg protein per well; fibrinogen 0.5 µg per well; parent: 3.2; read off a plot. A general note: ELISA stands for enzyme-linked immunosorbent assay.
Regarding chain 1 E176A, the response is ~3.5 O.D. (492 nm).
As to chain 1 H179A, the response is ~3.1 O.D. (492 nm).
The result for chain 1 H175A reads ~3.5 O.D. (492 nm).
